Data set [1] deals with T1, human claudin-4 (residue: 1 to 183) synthesized in a cell-free system (human, UniProt O14493 1-183).
T1 sequence: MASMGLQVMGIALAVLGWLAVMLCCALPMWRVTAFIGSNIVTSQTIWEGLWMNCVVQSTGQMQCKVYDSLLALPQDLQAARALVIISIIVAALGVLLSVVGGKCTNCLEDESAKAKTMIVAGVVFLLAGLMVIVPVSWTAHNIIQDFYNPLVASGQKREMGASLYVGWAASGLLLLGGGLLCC

A short description of data set [2]: GlcT enzyme activity (specific activity) of cell-free synthesized human GlcT. To be noted: GlcT produced by liposome method with porcine brain lipid mixture.
Data set [3] has as its target C-terminal fragment (C-CPE) of Clostridium perfringens enterotoxin (CPE) (Clostridium perfringens, UniProt P01558). The conditions noted are these: read-out: KD value.

B1: GST tag-added C-CPE (ligand)
chain: RCVLTVPSTDIEKEILDLAAATERLNLTDALNSNPAGNLYDWRSSNSYPWTQKLNLHLTITATGQKYRILASKIVDFNIYSNNFNNLVKLEQSLGDGVKDHYVDISLDAGQYVLVMKANSSYSGNYPYSILFQKF
Broadly, the Kd is a measure of binding affinity in units of concentration. As for B1, in data set [1], the affinity, expressed as Kd, was 3.4 nM.

B2: GlcT: Human glucosylceramide synthase, estimated 3-transmembrane enzyme, produced in a cell-free system with lipids (protein, UniProt Q16739 1-394, looked up)
Ceramide glucosyltransferase: MALLDLALEGMAVFGFVLFLVLWLMHFMAIIYTRLHLNKKATDKQPYSKLPGVSLLKPLKGVDPNLINNLETFFELDYPKYEVLLCVQDHDDPAIDVCKKLLGKYPNVDARLFIGGKKVGINPKINNLMPGYEVAKYDLIWICDSGIRVIPDTLTDMVNQMTEKVGLVHGLPYVADRQGFAATLEQVYFGTSHPRYYISANVTGFKCVTGMSCLMRKDVLDQAGGLIAFAQYIAEDYFMAKAIADRGWRFAMSTQVAMQNSGSYSISQFQSRMIRWTKLRINMLPATIICEPISECFVASLIIGWAAHHVFRWDIMVFFMCHCLAWFIFDYIQLRGVQGGTLCFSKLDYAVAWFIRESMTIYIFLSALWDPTISWRTGRYRLRCGGTAEEILDV
With B2, the “specificity (specific activity) relative to sample produced with GalCer (5%), cholesterol (5%), egg PC (90%)” value in data set [2] is reported as “approximately 2.7 times higher”.

B3: human claudin-4: Human claudin-4 (residue 1 to 183), 4-transmembrane tight junction protein produced by the cell-free lipid-detergent method (protein, UniProt O14493 1-183, looked up, fragment)
chain: MASMGLQVMGIALAVLGWLAVMLCCALPMWRVTAFIGSNIVTSQTIWEGLWMNCVVQSTGQMQCKVYDSLLALPQDLQAARALVIISIIVAALGVLLSVVGGKCTNCLEDESAKAKTMIVAGVVFLLAGLMVIVPVSWTAHNIIQDFYNPLVASGQKREMGASLYVGWAASGLLLLGGGLLCC
For B3, the Kd in data set [3] worked out at 3.4 nM.
